Measurements from patent US20230095569A1 (ANTENGENE BIOLOGICS, published 2023).
Changes are numbered by the printed parent chain.

B1: Ab11 (antibody, V domains shown)
VH: EVMLVESGGDLVKPGGSLKLSCAASGFTFSRYTMSWVRQTPEKRLEWVATVSVGSGNTYYLDSVKGRFTISRDNAKNTLFLQMNSLRSEDTALYYCTRLGQTQRNAVDYWGQGTSVTVSS
VL: DIVMTQSPSFLSVSAGEKVTMSCKSSQSLFNGGNQKNYLAWYQQKPGQPPKLLIYGASTRDSGVPDRFTGSGSGTDFTLTISNVQAEDLAIYFCQNDHSFPLTFGAGTKLELK
notes: mouse monoclonal (hybridoma)
B2: Ab34 (antibody, V domains shown)
VH: EVLLQQSGPELVKPGASVKIPCKASGYTFSDYNMDWVKQSHGKSLEWIGHINPNNDNTIYNQKFKGKATLTVDKSSNTAYMDLRSLSSEDTAVYYCARGAYYGNSMDYWGQGTSVTVSS
VL: DIVMTQSPSSLTVTAGERVTMSCKSSQSLLNGGNQRNYLTWYQQKPGQSPKLLIYWASTWESGVPDRFTGSGSGTDFTLTISSVQAEDLAVYYCQNAYFYPYTFGGGTKLEIK
notes: mouse monoclonal (hybridoma)
B3: Ab17 (antibody, V domains shown)
VH: QVQLKESGPGLVAPSQSLSITCTVSGFSLTSYAISWVRQPPGKGLEWLGEIWTGGGTNYNSALKSRLSISKDNSKSQVFLKMNSLQTDDTARYYCGRLSYGNSLDYWGQGTTLTVSS
VL: DIVMTQSPSSLTVTAGEKVTMSCKSSQSLLNSGNQKNYLTWYQQKPGQPPKLLIYWASTRESGVPDRFTGSGSGTDFTLTVSSVQAEDLAVYYCQNNFIYPLTFGPGTKLELK
notes: mouse monoclonal (hybridoma)
B4: Ab09 (antibody, V domains shown)
VH: EVQLQQSGPELVKPGTSVKMSCKASGYTFTDYNMHWVKLSHGKSLEWIGYINPNNGGTIYNQRFKGKATLTVNKSSRTAYMDLRSLTSEDSAVYYCARQGYYGNSMDYWGQGNSVTVSS
VL: DIVMTQSPSSLTVTPGERVTMSCKSSQSLLNGGNQRNYLTWYQQKPGQPPKLLIYWASTRESGVPDRFAGSGSGTDFTLTISRVQAEDLSFYYCQNSYFYPFTFGSGTKLDLR
notes: mouse monoclonal (hybridoma)
B5: Ab07 (antibody, V domains shown)
VH: EVQLQQSGPELVKPGASVKISCKASGYSFTDYFMNWVKQSHGKGLEWIGRINPYNGDTFYNQKFKGKATLTVDKSSSTAHMELLSLTSEDFAVYYCALYDGYWGAFVYWGQGTLVTVSA
VL: DIQMTQSPASLSVFVGETVTITCRASENIYSNLAWYQQKQGKSPQLLVYAATNLADGVPSRFSGSGSGTQYSLKINSLQSEDFGSYYCQHFWGTPLTFGAGTKLELK
notes: mouse monoclonal (hybridoma)
B6: Ab31 (antibody, V domains shown)
VH: QIQLAQSGPELKKPGETVKISCKASGYSFTNYGMNWVKQAPGKGLKWMGWINTYSGETKYADDFKGRFDFSLETSARTAYLQIKNLKIEDTATYFCARRDAMDYWGQGTSVTVSS
VL: DIVMTQAAPSVPVTPGESVSISCRSSKSLLNSNGNTYLYWFLQRPGQSPQLLIYRMSNLASGVPDRFSGSGSGTAFTLRISRVEAEDVGVYYCMQHLEFPFTFGSGTKLEIK
notes: mouse monoclonal (hybridoma)
B7: Ab30 (antibody, V domains shown)
VH: QVQLKESGPGLVAPSQSLSITCTVSGFSLTKFGVNWVRQPPGKGLEWLGAIWGDGSTNYHSALISRLSINKDNSKSQVFLKLSSLQNVDTATYYCAKSGYGNAMDYWGHGTSVTVSS
VL: DIVMTQSPSSLTVTTGEKVTLNCKSSQSLLNSGNLKNYLTWYQQRPGQPPKLLIYWASTRESGVPYRFTGSGSGTDFTLTISNVQAEDLAIYYCQNDYFFPFTFGSGTKLEIK
notes: mouse monoclonal (hybridoma)
B8: Ab15 (antibody, V domains shown)
VH: EVMLVESGGDLVKPGGSLKLSCAASGFTFSTYTMSWVRQTPEKRLEWVATIVGGGGYTYYLDSVKGRFTISRDNAKNTLYLQMISLRSEDTALYYCARMGLTQRNALDYWGQGTSITVSS
VL: DIVMTQSPSSLSVSEGEKVTLNCKSSQSLFNSGNQKNYLAWYQQKPGQPPKLLIYGASTRESGVPDRFTGSGFGTDFTLTISSVQAEDLAVYYCQNDHTYPLTFGAGAKLELK
notes: mouse monoclonal (hybridoma); also called mAb Ab15
B9: Ab02 (antibody, V domains shown)
VH: QVQLKESGPGLVAPSQSLSITCTVSGFSLTSYAINWVRQPPGKGLEWLGVIWTGGGTNYNSALKSRLSINKDNSKSQVFLKMNSLQTDDTARYYCARFYDGYYSWFAYWGQGTLVTVSA
VL: DIVMTQSHKFMSTSVGDRVSITCKASQDVGTAVTWYQQKPGQSPKLLIYWASTRHTGVPDRFTGSGSGTDFTLTISNVQSEDLADYFCQQYSSYPFTFGSGTKLEIK
notes: mouse monoclonal (hybridoma)
B10: Ab32 (antibody, V domains shown)
VH: QVQLKESGPGLVAPSQSLSITCTVSGFSLTSHGVHWVRQPPGKGLEWLGVIWAGGSINFNSALMSRLSISKDNSKNQVFLKMNSLQSDDTAMYYCARDYYYGIGLDYWGQGTTLTVS
VL: DIVMTQSPSSLSVSAGEKVTMSCKSSQSLLNSGNQKNYLAWYQQKPGQPPKLLIYGASTRESGVPDRFTGSGSGTDFTLTISSVQAEDLAVYYCQNDYYYPFTFGSGTKLEIK
notes: mouse monoclonal (hybridoma)
B11: Ab13 (antibody, V domains shown)
VH: EVRLVESGGGLVKPGGSLKLSCAGSGFTFSSYTMSWVRQTPEKRLEWVATITIGVNIYYLDSVKGRFTISRDNAKNTLYLQMNSLRSEDTALYYCTRLGQTQRNAMDYWGQGTSVTVSS
VL: B10 VL with S9T, S22T, Q44E, D97N, Y98H, Y99F, F102L, S106A, I112L
notes: mouse monoclonal (hybridoma)
B12: Ab14 (antibody, V domains shown)
VH: QVQLQQPGAELVKPGASVKLSCKASGYTFTSYLLHWVKQRPGQGLEWIGMIHPNGGSTNYNEKFKTKATLTVDKSSSTAYMQLSSLTSEDSAVYYCAPVYFGNSFAYWGQGTLVTVSA
VL: B10 VL with S12T, S14T, A40T, G56W, I112K
notes: mouse monoclonal (hybridoma)
B13: Ab06 (antibody, V domains shown)
VH: EVQLVASGGGLVKPGGSLKLSCAASGITFRSYAMSWVRQTPEKRLEWVATITDGGSYIFYPDNVKGRFTISGDHAKNNLYLQMSHLKSEDTALYFCVRLYYGNSFAYWGQGTLVTVSA
VL: B3 VL with M21L, S22N, L30F, V81F, N97A, F98Y, L102F, P106S, L112I
notes: mouse monoclonal (hybridoma)
B14: Ab05 (antibody, V domains shown)
VH: DVKLVESGEDLVKPGGSLKLSCAASGFTFSNYAMSWVRQTPEKRLEWVAYVSSGGDYIYYADTVKGRFIISRDNARNTLYLQMNSLRSEDTAMYYCARVYFGNSLDYWGQGTTLTVSS
VL: B10 VL with S12T, S14T, M21L, S32G, A40T, K45R, G56W, T80I, F102W, S106G
notes: mouse monoclonal (hybridoma)
B15: Ab16 (antibody, V domains shown)
VH: EVMLVESGGGLVKPGGSLKLSCAASGFTFNSYTMSWVRQTPEKRLEWVATITVIGGNTYYLDSVKGRFTISIDNGKNTLYLQMSSLRSEDTALYYCARMGQTQRNAMDYWGQGTSVTVSS
VL: B10 VL with E17Q, S22R, P46L, T69S, S82T, Y99S, Y100F, F102L, S106A, I112L
notes: mouse monoclonal (hybridoma)
B16: Ab33 (antibody, V domains shown)
VH: DVNLVESGGGLVKPGGSLKLSCAASGFTFSSYTMSWVRQTPEKRLEWVATITYGRIYTYYLDSVKGRFTISRDNAKNTLYLQMSSLRSEDTAMYYCTRMITGNAMDSWGLGTSVTVSS
VL: B3 VL with V81I, S83G, A86G, N97D, F98Y, I99S, P106G
notes: mouse monoclonal (hybridoma)
B17: Ab08 (antibody, V domains shown)
VH: B12 VH
VL: B10 VL with S12T, S14T, A40T, G56W, I112K
notes: mouse monoclonal (hybridoma)
B18: Ab12 (antibody, V domains shown)
VH: EVMLVESGGGLVKPGGSLKLSCAASGFTFSSYTMSWVRQTPEKRLEWVATIIGGYGNTYYADSVKGRFTISRDSAKNTLYLQMLSLRSEDTALYYCTRLGQTQRNAMDYWGQGTSVTVSS
VL: B10 VL with V3L, K36R, F102L, S106A, I112L
notes: mouse monoclonal (hybridoma)
B19: Ab35 (antibody, V domains shown)
VH: DVFLQESGPGLVKPSQSLSLTCTVTGYSITSDYAWNWIRQFPGNKLEWVTYIGYSGTTSYNPSLKSRISITRDTSKNQFFLQLNSVSTEDTATYYCVRRGSYYGSYWFFDVWGAGTTVTVSS
VL: QVVLSQSPAILSASPGEKVTMTCRASSSVSYMHWYQQKPGSSPKPWIYATSNLASGVPPHFSGSGSGTSYSLTISRVEAEDAATYYCQQWTSNPPTFGGGTKLEIK
notes: mouse monoclonal (hybridoma)

Biological target: T1, human Claudin18.1 (CLDN18.1) (human, UniProt P56856 1-261)
T1 construct: whole, on cells; also called human Claudine18.1
Assay: FACS on CHOK1-18.1 cells;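 as to FACS MFI: test antibody binding to the cells detected by flow cytometry using a fluorescent dye-labelled secondary antibody, read out as median fluorescence intensity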;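 as to result: antibody binding to cells detected with a fluorescently labelled secondary antibody, read out as median fluorescence intensity (MFI) by flow cytometry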
Method: (§1) The specificity and cross-reactivity of these subclones were confirmed with FACs analysis. […] Fluorescent dye-conjugated secondary antibody was used to detect the binding of the primary antibody with the cells. Median fluorescence intensity (MFI) was measured by FACs analysis.

Row | Binder | binding result
1 | B1 | no binding
2 | B2 | no binding
3 | B3 | no binding
4 | B4 | no binding
5 | B5 | no binding
6 | B6 | no binding
7 | B7 | no binding
8 | B8 | no binding
9 | B9 | no binding
10 | B10 | no binding
11 | B11 | no binding
12 | B12 | no binding
13 | B13 | no binding
14 | B14 | no binding
15 | B15 | no binding
16 | B16 | no binding
17 | B17 | no binding
18 | B18 | no binding
19 | B19 | no binding

Biological target: T2, human Claudin18.2 (CLDN18.2) (human, UniProt P56856 1-261)
T2 construct: the cell line is named under assay; also called human Claudine18.2; hClaudin18.2
Assay: FACS on CHOK1-18.2 cells;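 also: antibody binding to the cells detected with a fluorescently labelled secondary antibody and read out as median fluorescence intensity by flow cytometry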
Method: as §1

Row | Binder | FACS MFI
20 | B1 | 9800
21 | B2 | 9070
22 | B3 | 11500
23 | B4 | 17100
24 | B5 | 13700
25 | B6 | 5520
26 | B7 | 7560
27 | B8 | 7390
28 | B9 | 1380
29 | B10 | 8730
30 | B11 | 7460
31 | B12 | 21400
32 | B13 | 46100
33 | B14 | 16000
34 | B15 | 8170
35 | B16 | 8200
36 | B17 | 19400
37 | B18 | 8820
38 | B19 | 11300

Biological target: T1, human Claudin18.1 (CLDN18.1)
Assay: FACS on CHOK1-18.1 cells;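 as to FACS MFI: test antibody binding to the cells detected by flow cytometry using a fluorescent dye-labelled secondary antibody, read out as median fluorescence intensity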;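 as to result: antibody binding to cells detected with a fluorescently labelled secondary antibody, read out as median fluorescence intensity (MFI) by flow cytometry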
Remark: another data set of the same source
Method: as §1

Row | Binder | FACS MFI
39 | B1 | 80.8
40 | B2 | 91.1
41 | B3 | 82.3
42 | B4 | 95.6
43 | B5 | 764
44 | B6 | 97
45 | B7 | 98.5
46 | B8 | 80.8
47 | B9 | 101
48 | B10 | 172
49 | B11 | 82.3
50 | B12 | 97
51 | B13 | 789
52 | B14 | 97
53 | B15 | 80.8
54 | B16 | 97
55 | B17 | 97
56 | B18 | 83.8
57 | B19 | 92.6
